{
  "source": "paper PMC5668312",
  "about": "“Structural basis of katanin p60:p80 complex formation” (Scientific Reports, 2017)",
  "binders": {"B1": {"name": "katanin p60 MIT domain (p60-MIT, aa 1-78 of mouse p60), wild type (domain or fragment, UniProt Q9WV86 1-78, looked up)", "chain": "MSLQMIVENVKLAREYALLGNYDSAMVYYQGVLDQMNKYLYSVKDTHLRQKWQQVWQEINVEAKQVKDIMKTLESFKL", "notes": "katanin p60 subunit, mouse, N-terminal MIT domain, residues 1-78; Co-purified with m2 as the p60-MIT:6xHis-p80CTD complex; source: E. coli BL21(DE3), pET28a, co-expressed with 6xHis-p80-CTD, purified (IMAC, SEC)"}},
  "target": "T1, katanin p80 C-terminal domain (p80-CTD, aa 481-658 of mouse p80), 6xHis-tagged (mouse, UniProt Q8BG40 481-658)",
  "T1 construct": "katanin p80 subunit, mouse, C-terminal domain, residues 481-658; also called 6xHis-p80CTD; source: E. coli BL21(DE3), pET28a, co-expressed with p60-MIT, purified (IMAC, SEC); not shown: 6xHis, N-terminal, kept",
  "T1 sequence (Q8BG40 481-658)": "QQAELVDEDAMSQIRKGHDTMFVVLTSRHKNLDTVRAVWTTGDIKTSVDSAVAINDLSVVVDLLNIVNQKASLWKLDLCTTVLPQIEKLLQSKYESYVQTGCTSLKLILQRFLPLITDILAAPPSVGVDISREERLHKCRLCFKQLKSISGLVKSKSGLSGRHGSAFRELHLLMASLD",
  "assay": "AUC; sedimentation velocity of the co-purified p60-MIT:p80-CTD complex, 300 nM to 50 μM, 20 °C, 42,000 rpm, 20 mM HEPES pH 7.4, 150 mM NaCl, 2 mM 2-mercaptoethanol; apparent Kd estimated",
  "details": "both partners purified",
  "data": [
    {"binder": "B1", "values": [
      {"measurement": "stoichiometry N", "result": 1}
    ]}
  ]
}
